Residue numbers refer to the chain shown, from its start. Values belong to the binder of their own block, whether it stands above or below them.
Legend:
hLRIG1 Peptide 70 = biological target: T1, hLRIG1 Peptide 70 (human); assay: peptide ELISA of Example 2, as told in Example 3
T1 construct: 20 amino acid peptide of the LRIG1 peptide library
T1 peptide: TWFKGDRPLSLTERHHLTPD
Experimental: (§1) To identify the epitopes to which LRIG1 antibodies with and without VISTA-LRIG1 blocking activity bound, a library of 20 amino acid peptides representing portions of LRIG1 was produced, and the ability to bind LRIG1 antibodies was evaluated by ELISA. At least 2 ug/ml of hLRIG1 peptide in 50 μl of PBS or 0.1 ug/ml of full-length human LRIG1 protein (R&D Systems) in 100 μl of PBS was added to the wells of a 96-well ELISA plate (Thermo Fisher, 44-2404-21). After incubating the plate at 4° C. overnight, the plate was washed three times with 300 μl of PBST per well. The plate was then blocked for an hour with 200 μl of 2% BSA in PBST per well at room temperature with gentle rocking. Thereafter, the 2% BSA in PBST was removed and 100 μl of 0.1 ug/ml of antibody in 2% BSA in PBST was added to the wells. The plate was incubated for an hour at room temperature with gentle rocking and then washed three times with 300 μl of PBST per well. Afterwards, 100 μl of anti-mouse IgG-HRP (1:4000) (Jackson ImmunoResearch) or anti-rat IgG HRP (1:4000) (Jackson ImmunoResearch) was added to the wells. The plate was incubated for 30 minutes at room temperature with gentle rocking and then washed three times with 300 μl of PBST per well. 100 μl of TMB substrate (Fisher Scientific, 34029) was then added to each well. The reaction was stopped with 50 μl of 1 M HCl (VWR) per well. The plate was read using a plate reader (Molecular Devices) at absorbance of 450 nm, and signal greater than 0.25 OD was considered evidence of peptide binding.

hLRIG1 Peptide 71 = biological target: T2, hLRIG1 Peptide 71 (human); assay: peptide ELISA of Example 2, as told in Example 3
T2 construct: 20 amino acid peptide of the LRIG1 peptide library
T2 peptide: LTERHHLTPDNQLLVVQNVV
Experimental: as §1

[1] = biological target: T3, human LRIG1 extracellular domain fused to a linker-spaced 6-histidine tag, LRIG1-ECD-His (R&D systems, … (human, UniProt Q96JA1 35-794)); assay: LRIG1 ECD ELISA-positive hybridoma antibodies tested in blocking ELISA on plate-bound LRIG1-ECD-His
T3 construct: Bought protein; also called human LRIG1-His; hLRIG1-His; not shown: linker-spaced 6-histidine tag
T3 sequence: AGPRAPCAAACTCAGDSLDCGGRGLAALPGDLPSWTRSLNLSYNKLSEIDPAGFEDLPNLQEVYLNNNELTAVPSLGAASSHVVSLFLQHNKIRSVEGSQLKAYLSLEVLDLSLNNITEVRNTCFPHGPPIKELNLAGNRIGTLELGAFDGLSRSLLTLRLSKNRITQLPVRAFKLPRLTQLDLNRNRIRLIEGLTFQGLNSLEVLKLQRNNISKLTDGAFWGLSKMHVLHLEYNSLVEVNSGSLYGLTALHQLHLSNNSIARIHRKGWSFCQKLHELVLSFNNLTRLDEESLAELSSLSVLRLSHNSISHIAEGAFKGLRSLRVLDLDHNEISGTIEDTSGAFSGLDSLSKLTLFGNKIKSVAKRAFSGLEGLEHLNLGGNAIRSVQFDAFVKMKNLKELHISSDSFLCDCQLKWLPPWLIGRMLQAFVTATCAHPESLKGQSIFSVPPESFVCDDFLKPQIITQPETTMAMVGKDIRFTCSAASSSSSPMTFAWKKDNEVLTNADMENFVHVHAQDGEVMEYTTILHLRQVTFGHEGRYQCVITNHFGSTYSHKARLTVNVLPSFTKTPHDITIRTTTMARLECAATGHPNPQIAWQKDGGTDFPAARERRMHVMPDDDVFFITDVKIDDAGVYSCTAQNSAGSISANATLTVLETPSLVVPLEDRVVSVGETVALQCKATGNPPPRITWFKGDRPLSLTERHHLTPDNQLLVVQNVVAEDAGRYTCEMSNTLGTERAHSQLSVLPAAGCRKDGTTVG
Experimental: Positively scoring wells were evaluated for the ability to block association of LRIG1 and VISTA. To identify LRIG1-targeted antibodies with the ability to block the interaction of LRIG1 and VISTA, purified LRIG1 and VISTA proteins were incubated in the presence of LRIG1-immunization hybridoma supernatants described above, or without antibody, and protein interaction was evaluated by ELISA. Purified human LRIG1 extracellular domain fused to a HIS tag (R&D Systems) was diluted in phosphate buffered saline (PBS) (Corning) to a concentration of 3 μg/ml and 100 μl was added to each well of a 96-well ELISA plate (Thermo Fisher, 44-2404-21). After incubating the plate at 4° C. overnight, the plate was washed three times with 300 μl of PBS with 0.05% TWEEN (VWR) (PBST) per well. The plate was then blocked for an hour with 200 μl of 2% bovine serum albumin (BSA) (Sigma) in PBST per well at room temperature with gentle rocking. Thereafter, the 2% BSA in PBST was removed and 50 μl of hybridoma supernatant diluted to 3.3 ug/mL was added to the wells. The plate was incubated for 10 minutes at room temperature with gentle rocking. Afterwards, 100 ul of 50 nM oligomerized VISTA in 100 ul PBS buffer was added per well. VISTA oligomerization was performed by Klickmer formation. Briefly, 5 nM Klickmer (Immudex) was incubated with 200 nM hVISTA-Fc-Avi-Biotin in PBS and incubated for one hour. The plate was incubated for an hour at room temperature with gentle rocking. Thereafter, the plate was washed three times with 300 μl of PBST per well, and 100 μl of avidin-HRP (1:1000) (Jackson ImmunoResearch) was then added to each well and the plate was incubated at room temperature for 30 minutes with gentle rocking. Thereafter, the plate was washed three times with 300 μl of PBST per well. 100 μl of TMB substrate (Fisher Scientific, 34029) was then added to each well. The reaction was stopped with 50 μl of 1 M HCl (VWR) per well. The plate was read using a spectrophotometer (Molecular Devices) at absorbance of 450 nm. Percent blockade of LRIG1-VISTA interaction was calculated as the fraction of signal obtained in each experimental samples of the no antibody sample less background signal.

hLRIG1 Peptide 69 = biological target: T4, hLRIG1 Peptide 69 (human); assay: peptide ELISA of Example 2, as told in Example 3
T4 construct: 20 amino acid peptide of the LRIG1 peptide library
T4 peptide: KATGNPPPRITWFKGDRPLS
Experimental: as §1

binding result (hLRIG1 Peptide 70): binds
binding result (hLRIG1 Peptide 71): binds
binding result [1]: binds
B1: 802.2B7.2F9 (antibody, V domains shown)
VH: EVQLVESGGGLAKPGGSLKLSCAASGFTFSASAMSWVRQTPEKRLEWVATISDGGSYTYYPDNVKGRFTISRDNAKSNLYLQMSHLKSEDTAMYYCAGGVSTVINFDYWGQGTTLTVSS
VL: DVVMTQTPLSLPVSLGDQVSISCRSSQSIVHSNGNTYLEWYLQKPGQSPKLLIYKVSNRFSGVPDRFSGSGSGTDFTLKISRVEAEDLGVYYCFQGSHVPLTFGGGTKLELK
notes: Mouse hybridoma monoclonal

binding result (hLRIG1 Peptide 70): binds
binding result (hLRIG1 Peptide 71): binds
binding result [1]: binds
B2: 802.5G6.2B8 (antibody, V domains shown)
VH: EVHLVESGGGLMKPGGSLKLSCAASGFTFSSYAMSWVRQTPEKRLEWVATISDGGSYTYYPDNVKGRFTISRDNAKNNLYLQMSRLKSEDTAMYYCSRAGSTVVNFGYWGQGTTLTVSS
VL: B1 VL with V2I, V19A, S28N, V30A, K50Q, G105A
notes: Mouse hybridoma monoclonal

binding result (hLRIG1 Peptide 69): binds
binding result [1]: binds
B3: 802.5G6.2B11 (antibody, V domains shown)
VH: EVQLQQSGAELVRPGASVKLSCTASGFNIKDDYLHWVKQRPEQGLEWIGWIDPEKGDTECASKFQGKATITVDTSSNTAYLQLSSLTSEDTAVYFCTTGSTVWGQGTTLTVSS
VL: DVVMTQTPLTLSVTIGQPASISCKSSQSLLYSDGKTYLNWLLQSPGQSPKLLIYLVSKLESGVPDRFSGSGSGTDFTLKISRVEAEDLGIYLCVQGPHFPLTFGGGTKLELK
notes: Mouse hybridoma monoclonal
